Measured values from patent US20110271408A1.

Target: HAB1 (PP2C used in the in vitro phosphatase activity assays) (UniProt Q9CAJ0)
Assay: cell-based or functional assay

HAB1 (PP2C used in the in vitro phosphatase activity assays), sequence (Q9CAJ0 23-511 limits assumed): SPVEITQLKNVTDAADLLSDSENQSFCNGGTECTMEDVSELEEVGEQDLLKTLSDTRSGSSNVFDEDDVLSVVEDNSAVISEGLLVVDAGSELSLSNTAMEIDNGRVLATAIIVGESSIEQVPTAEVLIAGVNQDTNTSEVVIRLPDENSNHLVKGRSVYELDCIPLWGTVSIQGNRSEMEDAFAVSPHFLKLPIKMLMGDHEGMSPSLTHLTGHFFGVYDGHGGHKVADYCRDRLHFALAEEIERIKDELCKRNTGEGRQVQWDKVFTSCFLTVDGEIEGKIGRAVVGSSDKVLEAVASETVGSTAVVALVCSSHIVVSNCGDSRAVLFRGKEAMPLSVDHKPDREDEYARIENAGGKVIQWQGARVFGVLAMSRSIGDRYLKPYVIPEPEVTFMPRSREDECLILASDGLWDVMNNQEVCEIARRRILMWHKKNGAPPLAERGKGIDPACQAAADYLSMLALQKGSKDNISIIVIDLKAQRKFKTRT

Question: How did the in vitro receptor assay (PP2C activity, 2:1 receptor to phosphatase); IC50 of fenhexamid turn out when “PYR1 K59R, Y120H, M158I triple mutant (recombinant protein) (from UniProt O49686 1-191) (receptor)” was run?
Answer: 0.4 µM
